{"source": "patent US8703452B2", "about": "“Extracellular aldonolactonase” (The Regents of the University of California, priority 2010, dated 2014)", "key": {"[1]": {"biological_target": "S. thermophile aldonolactonase 1 (Thermothelomyces thermophilus, UniProt E5LEX3)", "conditions": "substrate specificity", "procedure": "(§1) Aldonolactonase activity was measured as described by Hestrin (21). The reactions were carried out in triplicate in 96-well microtiter plates. Briefly, 100 μL of 100 mM freshly dissolved sugar lactone was immediately mixed with 100 μL of 10 nM aldonolactonase enzyme buffered in 100 mM sodium acetate pH 5.0 for 1 minute at 25° C. The reaction was quenched by adding 40 μL of alkaline hydroxylamine (2.0 M hydroxylamine hydrochloride, 1.5 M sodium hydroxide) for 1 minute. Twenty microliters of 4.0 M hydrochloric acid was then added to acidify the solution and stabilize the sugar hydroxamate. Color was developed by adding 20 μL of 0.5 M ferric chloride (FeCl3) and the absorbance at 540 nm was measured. For all experiments, control measurements were made on control samples where no enzyme was added. The background hydrolysis was subtracted from the total hydrolysis in the presence of enzyme."}, "[2]": {"conditions": "cited from earlier work"}, "[3]": {"tested_on": "S. thermophile Aldonolactonase 2 (Spoth1189286)", "test": "Standard gluconolactonase assay with recombinant S. thermophile aldonolactonase 2", "type": "biochemical, Sporotrichum thermophile", "conditions": "unpurified concentrate, expressed in N. crassa", "procedure": "as §1, with “Lactonase activity on gluconolactone was confirmed using the standard gluconolactonase assay (as described in other sections). The protein was not further purified because the affinity purification tag was removed by endogenous proteases in N. crassa. Aldonolactonase” for “Aldonolactonase”, “Hestrin” left out, “Color was developed by adding 20 μL of 0.5 M ferric chloride (FeCl3) and the absorbance at 540 nm was measured.” left out, “enzyme. This typically amounted to less than 10% of the total lactone.” for “enzyme.”"}, "[4]": {"test": "Aldonolactonase activity of enzyme preparations on glucono-δ-lactone", "type": "biochemical", "conditions": "glucono-δ-lactone as substrate, 25° C., pH 5.0", "procedure": "as §1, with “enzyme. This typically amounted to less than 10% of the total lactone.” for “enzyme.”"}, "[5]": {"test": "Stability of aldonolactonase activity", "type": "physicochemical", "from_the_text": "Sporotrichum thermophile is a thermophilic fungus isolated from soil and self-heating compost (3). […] During development of the present disclosure, an enzyme involved in the process of cellulose degradation was isolated from S. thermophile. As disclosed herein, an enzyme containing extracellular aldonolactonase activity was purified, identified, and characterized from the thermophilic ascomycete S. thermophile. The S. thermophile aldonolactonase hydrolyzes hexose δ-lactones over a broad range of pH values. […] (the growth condition for production of the enzyme). The expression profile and kinetic parameters of the S. thermophile aldonolactonase were determined on different substrates. The results disclosed herein provide insight into how S. thermophile utilizes aldonolactonase in nutrient acquisition, especially from hexose δ-lactones and how this enzyme can be utilized for biofuel production.\nAfter 48 hours of growth on complex media containing cellulose, S. thermophile mycelia and residual cellulose were removed from the culture by filtering over 0.2 micron polyethersulfone (PES) filters. The filtered culture broth was then concentrated and buffer exchanged using tangential flow filtration with a 10 kDa molecular weight cut-off (MWCO) PES membrane (Millipore, Billerica, Mass.) into 25 mM 4-(2-hydroxyethyl)-1-piperazineethanesulfonic acid (HEPES) buffer, pH 7.4. […]"}, "[6]": {"test": "pH profile of S. thermophile aldonolactonase 1", "type": "biochemical", "conditions": "from pH 3.0 to pH 8.0; 10 nM enzyme, 50 mM glucono-δ-lactone, room temperature", "procedure": "FIG. 9 depicts the pH profile of S. thermophile aldonolactonase 1. Reactions were conducted at room temperature for 1 minute with 10 nM aldonolactonase, 50 mM glucono-δ-lactone, and 100 mM buffer. Buffers used included sodium citrate, pH 3.0; sodium acetate, pH 4.0; sodium acetate, pH 5.0; sodium succinate, pH 6.0; HEPES, pH 7.0; and Tris, pH 8.0. Error bars represent the standard deviation of three replicate experiments."}, "[7]": {"substrate": "O=C1O[C@H](CO)[C@@H](O)[C@H](O)[C@H]1O", "test": "purified protein, by the assay type"}, "[8]": {"substrate": "O=C1O[C@H](CO)[C@@H](O[C@@H]2O[C@H](CO)[C@@H](O)[C@H](O)[C@H]2O)[C@H](O)[C@H]1O", "test": "purified protein, by the assay type", "conditions": "other: steady-state kinetic constants; substrate of S. thermophile aldonolactonase 1; pH 5.0; 25.0 °C", "experimental": "(§2) Aldonolactonase activity was measured as described by Hestrin (21). The reactions were carried out in triplicate in 96-well microtiter plates. Briefly, 100 μL of 100 mM freshly dissolved sugar lactone was immediately mixed with 100 μL of 10 nM aldonolactonase enzyme buffered in 100 mM sodium acetate pH 5.0 for 1 minute at 25° C. The reaction was quenched by adding 40 μL of alkaline hydroxylamine (2.0 M hydroxylamine hydrochloride, 1.5 M sodium hydroxide) for 1 minute. Twenty microliters of 4.0 M hydrochloric acid was then added to acidify the solution and stabilize the sugar hydroxamate. Color was developed by adding 20 μL of 0.5 M ferric chloride (FeCl3) and the absorbance at 540 nm was measured. For all experiments, control measurements were made on control samples where no enzyme was added. The background hydrolysis was subtracted from the total hydrolysis in the presence of enzyme. This typically amounted to less than 10% of the total lactone."}, "[9]": {"substrate": "O=C1O[C@H](CO)[C@@H](O[C@@H]2O[C@H](CO)[C@H](O)[C@H](O)[C@H]2O)[C@H](O)[C@H]1O", "test": "purified protein, by the assay type", "conditions": "other: steady-state kinetic constants; substrate of S. thermophile aldonolactonase 1; pH 5.0; 25.0 °C", "experimental": "as §2"}, "[10]": {"conditions": "other: steady-state kinetic constants, substrate of S. thermophile aldonolactonase 1, pH 5.0, 25.0 °C"}}, "data": [{"molecule": "O=C1O[C@H](CO)[C@@H](O[C@@H]2O[C@H](CO)[C@H](O)[C@H](O)[C@H]2O)[C@H](O)[C@H]1O", "note": "[D-Lactono-δ-lactone]", "values": [{"measurement": "hydrolysis by S. thermophile aldonolactonase 1", "setting": "[1]", "value": "completely hydrolyze"}]}, {"molecule": "O=C1O[C@H](CO)[C@@H](O)[C@H](O)[C@H]1O", "note": "[D-Glucono-δ-lactone]", "values": [{"measurement": "equilibrium constant between glucono-δ-lactone and gluconic acid", "setting": "[2]; favoring gluconic acid", "value": 7.7}, {"measurement": "half-life", "setting": "[2]; in water at room temperature and pH 5.0", "value": "approximately 1 hour"}, {"measurement": "lactonase activity on gluconolactone", "setting": "[3]", "value": "confirmed"}, {"measurement": "hydrolysis by S. thermophile aldonolactonase 1", "setting": "[1]", "value": "completely hydrolyze"}]}, {"molecule": "O=C1O[C@H](CO)[C@@H](O)[C@@H]1O", "note": "[arabinolactone]", "values": [{"measurement": "hydrolysis by S. thermophile aldonolactonase 1", "setting": "[1]", "value": "not hydrolyzed"}]}, {"molecule": "O=C1O[C@H](CO)[C@H](O)[C@H]1O", "note": "[Xylonolactone]", "values": [{"measurement": "hydrolysis by S. thermophile aldonolactonase 1", "setting": "[1]", "value": "not hydrolyzed"}]}, {"molecule": "O=C1O[C@H](CO)[C@@H](O[C@@H]2O[C@H](CO)[C@@H](O)[C@H](O)[C@H]2O)[C@H](O)[C@H]1O", "note": "[D-Cellobiono-δ-lactone]", "values": [{"measurement": "hydrolysis by S. thermophile aldonolactonase 1", "setting": "[1]", "value": "completely hydrolyze"}]}, {"molecule": "S. thermophile aldonolactonase 1: extracellular aldonolactonase purified from S. thermophile culture broth, encoded by Spoth11109678 (SEQ ID NO: 1) (protein, Sporotrichum thermophile; extracellular aldonolactonase 1) MRTSYGVAFALSAGFRLATAAPVCGGGSASDLLWVTTYPAGEGAQGKLLTLKLDGSKLVVAESDTCGPYPSWLTQAGDVLYCVDEAWGGDHGTLHSLKINDDHSFTNLSQHETVGGPVSTVIYGKDGLGLAVADYAGGGIDTFNIADPAAIKLIKSLVYPAPTDGLPDPQNSARPHEAILDPTGEFLVFPDLGADQIRVLKVDKETLEYVEKPSYTDFDRGTGPRHGAFFKSGDKTFFYLVGELSNLLQGFSVAYNDDDSLTFTRIHNSTTHGDDKPLPEDTAAAELWIAPGSNFLTLSSRFESSLEYTVANGTKVPSDPLITFSIDKETGALTHVQSAPAGGINPRHFSFNSDGTRVASALQSDGRVVVFERDPSTGKIGKATAEGDVEGMPNFATFKQ", "values": [{"measurement": "activity relative to that reported for lactonases isolated from other filamentous fungi", "setting": "[4]", "value": "approximately 20 fold"}, {"measurement": "stability", "setting": "[5]; 50° C. (growth condition for production of the enzyme)", "value": "stable for several days"}, {"measurement": "storage stability of aldonolactonase activity", "setting": "[5]; stored at −80° C.", "value": "stable for several months"}, {"measurement": "change in activity", "setting": "[6]", "value": 3, "unit": "fold"}]}, {"molecule": "S. thermophile aldonolactonase 1 (Thermothelomyces thermophilus) (protein) APVCGGGSASDLLWVTTYPAGEGAQGKLLTLKLDGSKLEVVAESDTCGPYPSWLTQAGDVLYCVDEAWGGDHGTLHSLKINDDHSFTNLSQHETVGGPVSTVIYGKDGLGLAVADYAGGGIDTFNIADPAAIKLIKSLVYPAPTDGLPDPQNSARPHEAILDPTGEFLVFPDLGADQIRVLKVDKETLEYVEKPSYTDFDRGTGPRHGAFFKSGDKTFFYLVGELSNLLQGFSVAYNDDDSLTFTRIHNSTTHGDDKPLPEDTAAAELWIAPGSNFLTLSSRFESSLEYTVANGTKVPSDPLITFSIDKETGALTHVQSAPAGGINPRHFSFNSDGTRVASALQSDGRVVVFERDPSTGKIGKATAEGDVEGMPNFATFKQ", "values": [{"measurement": "kcat/Km", "setting": "[7]; other: 25° C. and pH 5.0", "value": 600000, "unit": "M⁻¹ s⁻¹"}, {"measurement": "Km", "setting": "[7]; [10]", "value": 20.3, "unit": "mM"}, {"measurement": "kcat", "setting": "[7]; [10]", "value": 11700, "unit": "s⁻¹"}, {"measurement": "kcat/Km", "setting": "[7]; [10]", "value": 580000, "unit": "M⁻¹ s⁻¹"}, {"measurement": "Km", "setting": "[8]", "value": 21.6, "unit": "mM"}, {"measurement": "kcat", "setting": "[8]", "value": 29100, "unit": "s⁻¹"}, {"measurement": "kcat/Km", "setting": "[8]", "value": "1.35e+06 ± 120000", "unit": "M⁻¹ s⁻¹"}, {"measurement": "Km", "setting": "[9]", "value": 5.9, "unit": "mM"}, {"measurement": "kcat", "setting": "[9]", "value": 7400, "unit": "s⁻¹"}, {"measurement": "kcat/Km", "setting": "[9]", "value": "1.25e+06 ± 520000", "unit": "M⁻¹ s⁻¹"}]}]}
